Results published in article PMC4565748 (Molecular immunology, 2015).
Positions count from the first letter of the chain named. Names and notes keep the numbering of the source.

B1: SCIN-A: full-length staphylococcal complement inhibitor SCIN-A, Staphylococcus aureus strain Mu50 (protein)
chain: STSLPTSNEYQNEKLANELKSLLDELNVNELATGSLNTYYKRTIKISGQKAMYALKSKDFKKMSEAKYQLQKIYNEIDEALKSKY
B2: SCIN-A.R42A: full-length SCIN-A with Arg-42 alanine mutation (protein)
chain: B1 chain with R42A
B3: SCIN-A.Q49A (protein)
chain: B1 chain with Q49A

Target: C3b (Homo sapiens, UniProt P01024)
Sequence (P01024 23-667 limits assumed): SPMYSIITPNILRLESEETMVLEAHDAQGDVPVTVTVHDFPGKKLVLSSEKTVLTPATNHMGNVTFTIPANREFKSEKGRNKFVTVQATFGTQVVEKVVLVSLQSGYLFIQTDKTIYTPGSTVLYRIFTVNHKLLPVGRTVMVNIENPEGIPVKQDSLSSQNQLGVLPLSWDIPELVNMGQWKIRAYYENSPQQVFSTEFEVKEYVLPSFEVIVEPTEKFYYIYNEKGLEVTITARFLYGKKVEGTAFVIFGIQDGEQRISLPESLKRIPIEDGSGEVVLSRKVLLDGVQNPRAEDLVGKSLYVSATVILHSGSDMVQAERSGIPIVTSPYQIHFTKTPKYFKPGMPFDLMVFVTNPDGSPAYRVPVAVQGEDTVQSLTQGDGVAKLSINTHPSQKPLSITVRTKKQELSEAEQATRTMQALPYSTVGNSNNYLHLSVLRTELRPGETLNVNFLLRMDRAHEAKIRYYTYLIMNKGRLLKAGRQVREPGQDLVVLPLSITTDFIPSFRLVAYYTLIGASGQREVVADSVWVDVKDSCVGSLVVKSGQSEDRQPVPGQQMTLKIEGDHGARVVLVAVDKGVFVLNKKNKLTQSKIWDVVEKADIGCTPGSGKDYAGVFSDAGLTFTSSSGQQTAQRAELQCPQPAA
Sequence (P01024 749-1663 limits assumed): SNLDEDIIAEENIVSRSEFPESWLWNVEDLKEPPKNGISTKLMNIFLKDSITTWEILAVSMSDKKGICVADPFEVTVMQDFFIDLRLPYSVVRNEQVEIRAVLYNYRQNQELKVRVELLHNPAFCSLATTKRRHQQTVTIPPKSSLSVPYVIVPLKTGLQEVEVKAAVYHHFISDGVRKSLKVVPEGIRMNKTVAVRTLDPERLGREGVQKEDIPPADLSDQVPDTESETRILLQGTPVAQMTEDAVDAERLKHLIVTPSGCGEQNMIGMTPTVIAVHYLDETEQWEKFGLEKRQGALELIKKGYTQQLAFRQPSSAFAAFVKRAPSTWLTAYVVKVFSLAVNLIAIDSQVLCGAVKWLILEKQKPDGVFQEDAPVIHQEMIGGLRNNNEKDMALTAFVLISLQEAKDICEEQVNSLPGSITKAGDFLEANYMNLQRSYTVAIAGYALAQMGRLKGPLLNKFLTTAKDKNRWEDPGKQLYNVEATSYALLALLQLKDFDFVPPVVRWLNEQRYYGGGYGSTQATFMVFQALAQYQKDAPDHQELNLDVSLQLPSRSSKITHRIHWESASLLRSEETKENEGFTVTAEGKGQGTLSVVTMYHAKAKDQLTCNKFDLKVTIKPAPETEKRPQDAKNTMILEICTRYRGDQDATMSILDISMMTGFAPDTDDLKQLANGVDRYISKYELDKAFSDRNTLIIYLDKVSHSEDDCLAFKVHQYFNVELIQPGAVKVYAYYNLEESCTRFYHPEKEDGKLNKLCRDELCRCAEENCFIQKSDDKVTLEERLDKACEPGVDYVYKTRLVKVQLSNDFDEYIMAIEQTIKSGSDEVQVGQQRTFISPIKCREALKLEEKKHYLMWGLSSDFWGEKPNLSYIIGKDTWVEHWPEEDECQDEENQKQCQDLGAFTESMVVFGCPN
Test: SPR direct binding to site-specifically immobilized C3b
Details: SPR kinetic analysis, 1:1 Langmuir model

| Molecule | ka | kd |
| --- | --- | --- |
| B1 | (5.5 ± 0.15) × 10^5 M^−1s^−1 | (5.1 ± 0.52) × 10^−2 s^−1 |
| B2 | (8.9 ± 0.15) × 10^4 M^−1s^−1 | (5.8 ± 0.45) × 10^−1 s^−1 |
| B3 | (7.6 ± 2.0) × 10^5 M^−1s^−1 | (5.1 ± 0.73) × 10^−2 s^−1 |
